Measured values published in paper PMC9701752.

B1: PTPRJ transmembrane domain construct for the AraTM assay, wild type (five extracellular residues, putative TMD, 20 cytoplasmic juxtamembrane residues) [human] / FLT3 transmembrane domain construct for the AraTM assay (five … (parent)
chain 1: QDPGVICGAVFGCIFGALVIVTVGGFIFWRKKRKDAKNNEVSFSQIKP
chain 2: QDNISFYATIGVCLLFIVVLTLLICHKYKKQFRYESQLQMVQVTG

Variants of: B1
Assay: DN-AraTM assay
Conditions: with FLT3 transmembrane domain construct for the AraTM assay (five extracellular residues, putative TMD, 20 cytoplasmic juxtamembrane residues); FLT3-AraC co-expressed with PTPRJ TMD-AraC* competitor; n=9; parent: 0.8; read off a plot

Variant	response (normalized GFP signal (FLT3 alone = 1))
chain 1 QDPGVICLAVFGCIFGALVIVTVGGFIFWRKKRKDAKNNEVSFSQIKP [chain 1 G8L]	0.5
chain 1 QDPGVICGAVFGCIFLALVIVTVGGFIFWRKKRKDAKNNEVSFSQIKP [chain 1 G16L]	0.55
chain 1 QDPGVICGAVFLCIFGALVIVTVGGFIFWRKKRKDAKNNEVSFSQIKP [chain 1 G12L]	0.56
